The target of assay [1] is HLA-B*07:02. The assay is described as follows: IEDB peptide-MHC binding, purified MHC/competitive/fluorescence; filed as Kd, often an IC50 or EC50 that approximates it; ≥ and ≤ were set here for values at or beyond the usual limits of such assays. The settings on record: source organism: Vaccinia virus WR.
Assay [2] has as its target HLA-A*03:01. Described as above. The settings on record: source organism: Vaccinia virus WR.
Assay [3] concerns the target HLA-B*08:01. The assay is described as above.
In a further assay the target is HLA-A*01:01. The assay is described as follows: IEDB peptide-MHC binding, purified MHC/direct/fluorescence; filed as Kd, often an IC50 or EC50 that approximates it; ≥ and ≤ were set here for values at or beyond the usual limits of such assays.
In assay [4] the target is HLA-A*24:03. The assay can be described thus: IEDB peptide-MHC binding, purified MHC/competitive/fluorescence; filed as Kd, often an IC50 or EC50 that approximates it; ≥ and ≤ were set here for values at or beyond the usual limits of such assays.
For assay [5], the target named is HLA-A*69:01. The assay can be described thus: IEDB peptide-MHC binding, purified MHC/direct/fluorescence; filed as Kd, often an IC50 or EC50 that approximates it; ≥ and ≤ were set here for values at or beyond the usual limits of such assays.
Assay [6] deals with HLA-A*31:01. The assay is described as follows: IEDB peptide-MHC binding, purified MHC/competitive/fluorescence; filed as Kd, often an IC50 or EC50 that approximates it; ≥ and ≤ were set here for values at or beyond the usual limits of such assays. Particulars: source organism: Influenza A virus H3N2.
For assay [7], the target named is HLA-B*07:02. The assay is described as follows: IEDB peptide-MHC binding, purified MHC/direct/fluorescence; filed as Kd, often an IC50 or EC50 that approximates it; ≥ and ≤ were set here for values at or beyond the usual limits of such assays.
The target of assay [8] is HLA-B*15:01. Described as above. The settings on record: source organism: Influenza A virus (A/goose/Guangxi/1097/2004(H5N1)).
Another assay concerns the target HLA-B*44:02. The description is as above.
Assay [9] addresses HLA-A*03:01. The description is as above.
Assay [10] deals with HLA-B*08:01. Described as above.
The target of assay [11] is HLA-A*02:01. The assay is described as above.
The next assay has as its target HLA-A*24:02. The assay is described as above.
The target of assay [12] is HLA-A*11:01. Described as above.
The next assay deals with HLA-B*18:01. Described as above.
For another assay, the target named is HLA-B*27:05. The assay is described as above.
A further assay deals with HLA-A*26:01. The description is as above.
A further assay concerns the target HLA-B*58:01. The assay is described as above.
The next assay deals with HLA-B*40:01. The description is as above.
In a further assay the target is HLA-B*46:01. The assay is described as above.
The target of a further assay is HLA-B*08:02. The description is as above. Particulars: source organism: Influenza A virus(A/swine/Shandong/fNY/2003(H9N2)).
Assay [13] deals with HLA-A*24:03. The assay is described as above.
The target of assay [14] is HLA-B*15:01. The assay is described as follows: IEDB peptide-MHC binding, purified MHC/competitive/fluorescence; filed as Kd, often an IC50 or EC50 that approximates it; ≥ and ≤ were set here for values at or beyond the usual limits of such assays. The settings on record: source organism: Bacillus anthracis str. A0389.
The target in assay [15] is HLA-A*11:01. Described as above. Particulars: source organism: Bacillus anthracis str. A0389.
The next assay has as its target HLA-B*15:17. The assay can be described thus: IEDB peptide-MHC binding, purified MHC/direct/fluorescence; filed as Kd, often an IC50 or EC50 that approximates it; ≥ and ≤ were set here for values at or beyond the usual limits of such assays.
Assay [16] addresses HLA-A*31:01. Described as above.
For another assay, the target named is HLA-B*57:01. The description is as above. Particulars: source organism: Bacillus anthracis.
The target in the next assay is HLA-B*48:01. The assay is described as above. Particulars: source organism: Bacillus anthracis.
For the next assay, the target named is HLA-C*15:02. Described as above. Particulars: source organism: Yellow fever virus.
A further assay concerns the target HLA-C*12:03. Described as above. The settings on record: source organism: Foot-and-mouth disease virus C1.
The target of assay [17] is HLA-A*02:01. The assay can be described thus: IEDB peptide-MHC binding, purified MHC/competitive/fluorescence; filed as Kd, often an IC50 or EC50 that approximates it; ≥ and ≤ were set here for values at or beyond the usual limits of such assays. Particulars: source organism: Homo sapiens.
In assay [18] the target is HLA-A*69:01. The assay is described as above. The settings on record: source organism: Homo sapiens.
A further assay concerns the target HLA-A*02:03. The assay is described as above. Particulars: source organism: Homo sapiens.
[19] abbreviates: source organism: Influenza A virus (A/goose/Guangxi/1097/2004(H5N1)).
[20] abbreviates: source organism: Bacillus anthracis.
[21] abbreviates: source organism: Influenza A virus (A/swine/Hong Kong/5190/99(H3N2)).

As a reminder, the Kd is the constant that tells how readily two partners part at equilibrium. Higher therefore signals lower affinity.

On to LSDLKKTIY, for which the equilibrium dissociation constant (Kd) with HLA-B*07:02 [1] is at least 20 µM; with HLA-A*03:01 [2] it was at least 20 µM; in the assay with HLA-B*08:01 [3] (source organism: Vaccinia virus WR) it was at least 20 µM; with HLA-A*01:01 (source organism: Cowpox virus (Brighton Red)), 0.0035 µM.
Consider IYQARFMKY, for which the results for the Kd in the assay with HLA-A*24:03 [4] (source organism: Pseudomonas aeruginosa PACS2) and with HLA-A*69:01 [5] (source organism: Burkholderia mallei) were 0.0008 µM and at least 20 µM, respectively.
As for KYTSGRQEK, the equilibrium dissociation constant (Kd) in the assay with HLA-A*31:01 [6] is 0.268 µM; in the assay with HLA-B*07:02 [7] (setting [19]), at least 20 µM; with HLA-B*15:01 [8] it was at least 20 µM; with HLA-B*44:02 (setting [19]), at least 20 µM; with HLA-A*03:01 [9] (setting [19]), at least 20 µM; with HLA-B*08:01 [10] (setting [19]), at least 20 µM. Also, the Kd with HLA-A*02:01 [11] (setting [19]), in the assay with HLA-A*24:02 (setting [19]), with HLA-A*11:01 [12] (setting [19]), with HLA-A*69:01 [5] (setting [19]), in the assay with HLA-B*18:01 (setting [19]) and with HLA-B*27:05 (setting [19]) was at least 20 µM in each case. In addition, the Kd in the assay with HLA-A*26:01 (source organism: Influenza A virus(A/swine/Shandong/fNY/2003(H9N2))), with HLA-B*58:01 (setting [19]), with HLA-B*40:01 (setting [19]), with HLA-B*46:01 (setting [19]), with HLA-A*01:01 (setting [19]) and in the assay with HLA-B*08:02 was at least 20 µM in each case. The sequence also came in with a dissociation constant Kd in the assay with HLA-A*24:03 [13] (setting [19]) of at least 20 µM.
Sequence QLRENAEDM came in with an equilibrium dissociation constant (Kd) with HLA-B*08:01 [3] (source organism: Influenza A virus (A/swine/Hong Kong/81/1978(H3N2))) of 5.3 µM.
As to VTECKLIYY, the Kd was at least 20 µM with HLA-B*15:01 [14]; 1.26 µM in the assay with HLA-A*11:01 [15]; at least 20 µM with HLA-A*03:01 [9] (setting [20]); at least 20 µM with HLA-B*08:01 [10] (source organism: Bacillus cereus 03BB108); at least 20 µM with HLA-A*02:01 [11] (setting [20]); 0.0347 µM in the assay with HLA-B*15:17 (setting [20]). For the same sequence, the dissociation constant (Kd) with HLA-A*69:01 [5] (setting [20]), in the assay with HLA-B*18:01 (setting [20]), in the assay with HLA-B*27:05 (setting [20]), in the assay with HLA-A*31:01 [16] (setting [20]), with HLA-B*58:01 (setting [20]) and with HLA-B*40:01 (setting [20]) was at least 20 µM each time. Moreover, the Kd with HLA-B*57:01 was at least 20 µM; with HLA-B*46:01 (setting [20]), at least 20 µM; with HLA-A*01:01 (setting [20]), 0.007 µM; in the assay with HLA-B*48:01, at least 20 µM.
Consider GYMFESKSM, for which the equilibrium dissociation constant (Kd) with HLA-B*07:02 [7] (setting [21]), in the assay with HLA-B*44:02 (setting [21]), in the assay with HLA-A*03:01 [9] (setting [21]), in the assay with HLA-B*08:01 [10] (setting [21]), with HLA-A*02:01 [11] (setting [21]) and with HLA-A*24:02 (setting [21]) was at least 20 µM each time. The Kd with HLA-A*11:01 [12] (setting [21]), with HLA-A*69:01 [5] (setting [21]), in the assay with HLA-B*27:05 (setting [21]), with HLA-A*31:01 [16] (setting [21]), with HLA-A*26:01 (source organism: Influenza A virus(A/swine/Henan/5/2004(H9N2))) and with HLA-B*58:01 (setting [21]) was at least 20 µM throughout. The Kd is at least 20 µM with HLA-B*40:01 (setting [21]), at least 20 µM with HLA-A*01:01 (setting [21]) and 0.0677 µM with HLA-A*24:03 [13] (setting [21]).
Take KTNDRKWCF: the Kd with HLA-B*15:17 (source organism: Yellow fever virus 17D) was determined as 0.0266 µM; with HLA-C*15:02 it was 0.849 µM.
As to MTAHITVPY, the equilibrium dissociation constant (Kd) with HLA-C*12:03 came out at 0.045 µM.
Sequence CYPYDVPDY had a Kd with HLA-A*24:03 [4] (source organism: Influenza A virus) of 0.223 µM.
Turning to FLHSGTAKS, the dissociation constant (Kd) with HLA-A*02:01 [17] was 0.0185 µM; in the assay with HLA-A*69:01 [18], at least 20 µM; in the assay with HLA-A*02:03, 0.00125 µM.

These data come from the Immune Epitope Database (IEDB).
